Laboratory results as given in US20090226474A1, “Antibodies as T cell receptor mimics, methods of production and uses thereof” (priority 2004, published 2009).

Columns and labels:
[1] = target: GVL peptide-HLA-A2 complex (human); assay: cell-based or functional assay
[2] = target: GVL peptide-HLA-A2 complex (human); assay: flow cytometry, T2 cells pulsed with 50 to 0.1 µg/ml GVL peptide

BB7.2 mAb (antibody)
CDC of T2 cells pulsed with 50 to 0.1 µg/ml GVL peptide, antibody 10 µg/ml [1]: 53 to 70%
MFI [2]: 250 to 350 MFI
